The source of these data is paper PMC3553216 (Biochemistry, 2013).

Series [1] is described as follows: AUC.
Series [2] addresses full-length SaPC F403A mutant (Staphylococcus aureus). In words: SEC. Background: SEC sorts molecules by how far they enter the pores of the column.
The target is the same in series [3]. In words: AUC.
For series [4] the target is unchanged. In words: AUC. This is another data set of the same source.
The target of series [5] is full-length SaPC K442E mutant (Staphylococcus aureus). In words: SEC.
The target is the same in series [6]. In words: AUC.
Series [7] has the same target. In words: AUC. The source holds these as a separate data set.
Series [8] has as its target full-length SaPC R54E mutant (Staphylococcus aureus). In words: SEC.
Series [9] has the same target. In words: AUC.
The target is the same in series [10]. In words: AUC. This is another data set of the same source.
Series [11] has as its target isolated BC domain of SaPC, R54E mutant (Staphylococcus aureus). In words: AUC.
Series [12] deals with the molecule itself. In words: AUC.
Series [13] deals with the molecule itself. In words: AUC. This is another data set of the same source.

Where two headings read alike, the source gives them in different places.

In turn, full-length SaPC F403A mutant showed a Monomer (%) in “AUC [1]” of 9%.
full-length SaPC F403A mutant (enzyme): in series [2], the stoichiometry N is 4. In addition, in series [3], the Dimer (%) stood at 2%, the Kd was 450 nM and the Tetramer (%) was 85%. This molecule returned a Kd in series [4] of 11 nM.
On to full-length SaPC K442E mutant, for which the Monomer (%) in “AUC [1]” turned out to be 10%.
With full-length SaPC K442E mutant (enzyme), in series [5], the stoichiometry N worked out at 2. In series [6], the Dimer (%) turned out to be 65% and the Kd stood at 820 nM. This molecule also showed a Kd in series [7] of 840000 nM.
The molecule full-length SaPC R54E mutant came in with a Monomer (%) in “AUC [1]” of 4%.
Turning to full-length SaPC R54E mutant (enzyme), in [8], the stoichiometry N came out at 4. In [9], the Dimer (%) was determined as 0%, the equilibrium dissociation constant (Kd) is 530 nM and the Tetramer (%) was 96%. The molecule further returned a Kd in series [10] of 3 nM.
For the molecule “isolated BC domain of SaPC, R54E mutant (domain or fragment)”, the Kd in [11] came to 195000 nM.

B1: wild-type full-length Staphylococcus aureus pyruvate carboxylase (enzyme, UniProt A0A0H3JRU9 1-1150, looked up)
chain: MKQIKKLLVANRGEIAIRIFRAAAELDISTVAIYSNEDKSSLHRYKADESYLVGSDLGPAESYLNIERIIDVAKQANVDAIHPGYGFLSENEQFARRCAEEGIKFIGPHLEHLDMFGDKVKARTTAIKADLPVIPGTDGPIKSYELAKEFAEEAGFPLMIKATSGGGGKGMRIVREESELEDAFHRAKSEAEKSFGNSEVYIERYIDNPKHIEVQVIGDEHGNIVHLFERDCSVQRRHQKVVEVAPSVGLSPTLRQRICDAAIQLMENIKYVNAGTVEFLVSGDEFFFIEVNPRVQVEHTITEMVTGIDIVKTQILVAAGADLFGEEINMPQQKDITTLGYAIQCRITTEDPLNDFMPDTGTIIAYRSSGGFGVRLDAGDGFQGAEISPYYDSLLVKLSTHAISFKQAEEKMVRSLREMRIRGVKTNIPFLINVMKNKKFTSGDYTTKFIEETPELFDIQPSLDRGTKTLEYIGNVTINGFPNVEKRPKPDYELASIPTVSSSKIASFSGTKQLLDEVGPKGVAEWVKKQDDVLLTDTTFRDAHQSLLATRVRTKDMINIASKTADVFKDGFSLEMWGGATFDVAYNFLKENPWERLERLRKAIPNVLFQMLLRASNAVGYKNYPDNVIHKFVQESAKAGIDVFRIFDSLNWVDQMKVANEAVQEAGKISEGTICYTGDILNPERSNIYTLEYYVKLAKELEREGFHILAIKDMAGLLKPKAAYELIGELKSAVDLPIHLHTHDTSGNGLLTYKQAIDAGVDIIDTAVASMSGLTSQPSANSLYYALNGFPRHLRTDIEGMESLSHYWSTVRTYYSDFESDIKSPNTEIYQHEMPGGQYSNLSQQAKSLGLGERFDEVKDMYRRVNFLFGDIVKVTPSSKVVGDMALYMVQNDLDEQSVITDGYKLDFPESVVSFFKGEIGQPVNGFNKDLQAVILKGQEALTARPGEYLEPVDFEKVRELLEEEQQGPVTEQDIISYVLYPKVYEQYIQTRNQYGNLSLLDTPTFFFGMRNGETVEIEIDKGKRLIIKLETISEPDENGNRTIYYAMNGQARRIYIKDENVHTNANVKPKADKSNPSHIGAQMPGSVTEVKVSVGETVKANQPLLITEAMKMETTIQAPFDGVIKQVTVNNGDTIATGDLLIEIEKATD
As for B1, the Kd in “AUC [12]” amounted to 750 ± 60 nM; in “AUC [13]”, 8 ± 0.6 nM.

The stoichiometry N is a count of units in the complex or per binding partner. One may read the Kd as the equilibrium constant for the complex coming apart. The low end stands for a tighter complex, the high end for a looser complex.
